The target of assay [1] is recombinant human VEGF (293-VE, R&D systems, USA) (human) (UniProt P15692). Kind of assay: ELISA, control IgG 50 nM. (ELISA stands for enzyme-linked immunosorbent assay.)
Assay [2] has as its target T1, recombinant mouse VEGF (493-MV, R&D systems, USA) (mouse) (UniProt Q00731).
T1 sequence (looked up): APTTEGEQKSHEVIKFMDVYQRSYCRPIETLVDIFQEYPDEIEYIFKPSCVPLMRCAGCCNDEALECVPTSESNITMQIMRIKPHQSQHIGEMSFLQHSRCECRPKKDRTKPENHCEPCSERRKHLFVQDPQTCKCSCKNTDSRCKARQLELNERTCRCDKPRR
Description: ELISA, control IgG 50 nM.

Assay [3] has as its target recombinant mouse VEGF (493-MV, R&D systems, USA) (mouse) (UniProt Q00731). Description: ELISA, Ab 0.78 nM.
Assay [4] shares this target. Kind of assay: ELISA, Ab 50 nM.
Assay [5] has the same target. Description: ELISA, Ab 3.13 nM.
Assay [6] shares this target. Description: ELISA, Ab 0.10 nM.
Assay [7] shares this target. Description: ELISA, Ab 12.5 nM.
Assay [8] has the same target. Kind of assay: ELISA, Ab 6.25 nM.
Assay [9] has the same target. Description: ELISA, Ab 0.39 nM.
Assay [10] has the same target. Description: ELISA, Ab 0.049 nM.
Assay [11] shares this target. Description: ELISA, Ab 25 nM.
For assay [12] the target is unchanged. Kind of assay: ELISA, Ab 0.20 nM.
Assay [13] shares this target. Kind of assay: ELISA, Ab 1.56 nM.

As for normal human IgG (antibody), the OD490 worked out at 0.052 in assay [1] and 0.0467 in assay [2].

For “Avastin™ (bevacizumab, Genetech), humanized anti-VEGF monoclonal antibody”, the OD490 in assay [3] amounted to 0.0438; in assay [4] it was 0.695; in [5] it was 0.0489; in [6], 0.147; in [7] it was 0.104; in assay [8], 0.0424. Moreover, the OD490 in assay [9] was 0.0569; in assay [10], 0.0687; in [11], 0.107; in [12], 0.0433; in [13] it was 0.0455.
